We go through 17 molecules from patent US20100135997A1 (MEDGENE, published 2010).

Where a chain is given by its changes, count along the chain named.

This test deals with T1, HLA-A*0201 loaded with the Carcinoembryonic antigen (CEA)-derived … peptide (biotin on the C-terminal biotinylation tag).
T1 construct: Soluble, biotinylated, immobilised on a streptavidin chip
Description: Biacore SPR. As for the experimental part: SPR measures changes in refractive index expressed in response units (RU) near a sensor surface within a small flow cell, a principle that can be used to detect receptor ligand interactions and to analyse their affinity and kinetic parameters. The probe flow cells were prepared by immobilising the pMHC complexes in flow cells via biotin-tag binding. The assay was then performed by passing soluble ILT-like molecule over the surfaces of the different flow cells at a constant flow rate, measuring the SPR response in doing so.
Background: Surface plasmon resonance follows binding to a sensor surface in real time, without labels.

B1: SEQ ID NO 38 (receptor)
chain: MAGHLPKPTLWAEPGSVITQGSPVTLRCQGGQETQEYRLYREKKTAPWITRIPQELVKKGQFPIPSITWEHAGRYRCYYGSDTSQWSASSDPLELVVTGVYIKPTLSAQPSPVVNSGGNVTLQCDSQVAFDGFILCKEGEDEHPQCLNSQPHARGSSRAIFSVGPVSPSRRWWYRCYAYMSWAPYEWSLPSDLLELDVDG
notes: mutated soluble two domain ILT-2
For the molecule B1, the Kd is ≤ 1000 nM and the koff was ≤ 2 s⁻¹.

B2: SEQ ID NO 56 (receptor)
chain: B1 chain with Q20M, G21D, S22Q, M180P, S181I, A183T, S188T, P190G
notes: as for B1
With B2, the Kd was ≤ 1000 nM and the off-rate constant (koff) was ≤ 2 s⁻¹.

B3: SEQ ID NO 54 (receptor)
chain: B1 chain with Q20M, G21D, S22Q, M180P, S181I, A183T, L189T, P190S
notes: as for B1
Regarding B3, the Kd is ≤ 1000 nM and the off-rate constant (koff) was ≤ 2 s⁻¹.

B4: SEQ ID NO 43 (receptor)
chain: B1 chain with Q20M, G21D, S22Q, W182Y, A183S
notes: as for B1
Take B4: the Kd is ≤ 1000 nM and the koff is ≤ 2 s⁻¹.

B5: SEQ ID NO 48 (receptor)
chain: B1 chain with Q20M, G21D, S22Q, M180D
notes: as for B1
Turning to B5, the Kd is ≤ 1000 nM and the koff is ≤ 2 s⁻¹.

B6: SEQ ID NO 55 (receptor)
chain: B1 chain with Q20M, G21D, S22Q, M180P, S181I, A183T, L189S, P190G
notes: as for B1
In the case of B6, the Kd is ≤ 1000 nM and the koff is ≤ 2 s⁻¹.

B7: SEQ ID NO 52 (receptor)
chain: B1 chain with Q20M, G21D, S22Q, M180P, S181I, A183T, L189Q, P190M
notes: as for B1
For the molecule B7, the Kd is ≤ 1000 nM and the koff is ≤ 2 s⁻¹.

B8: SEQ ID NO 45 (receptor)
chain: B1 chain with Q20M, G21D, S22Q, W182N, A183S
notes: as for B1
Consider B8, for which the Kd was ≤ 1000 nM and the off-rate constant (koff) is ≤ 2 s⁻¹.

B9: SEQ ID NO 58 (receptor)
chain: B1 chain with Q20M, G21D, S22Q, M180D, W182N, A183S, L189Q, P190M
notes: as for B1
As to B9, the Kd is ≤ 1000 nM and the koff is ≤ 2 s⁻¹.

B10: SEQ ID NO 59 (receptor)
chain: B1 chain with Q20M, G21D, S22Q, M180D, W182N, A183S, L189S, P190G
notes: as for B1
Turning to B10, the Kd was ≤ 1000 nM and the koff was ≤ 2 s⁻¹.

B11: SEQ ID NO 44 (receptor)
chain: B1 chain with Q20M, G21D, S22Q, M180P, S181A, W182Y, A183T
notes: as for B1
Take B11: the Kd was ≤ 1000 nM and the koff was ≤ 2 s⁻¹.

B12: SEQ ID NO 51 (receptor)
chain: B1 chain with Q20M, G21D, S22Q, M180P, S181I, A183T, P190G
notes: as for B1
B12: the Kd was ≤ 1000 nM and the off-rate constant (koff) is ≤ 2 s⁻¹.

B13: SEQ ID NO 46 (receptor)
chain: B1 chain with Q20M, G21D, S22Q, M180D, A183S
notes: as for B1
In the case of B13, the Kd is ≤ 1000 nM and the koff is ≤ 2 s⁻¹.

B14: SEQ ID NO 40 (receptor)
chain: B1 chain with A183S
notes: as for B1
As for B14, the Kd is ≤ 1000 nM and the koff is ≤ 2 s⁻¹.

B15: SEQ ID NO 57 (receptor)
chain: B1 chain with Q20M, G21D, S22Q, M180D, W182N, A183S, S188T, L189R, P190G
notes: as for B1
As to B15, the Kd is ≤ 1000 nM and the off-rate constant (koff) is ≤ 2 s⁻¹.

B16: SEQ ID NO 47 (receptor)
chain: B1 chain with Q20M, G21D, S22Q, W182N
notes: as for B1
As to B16, the Kd was ≤ 1000 nM and the dissociation rate constant (koff) was ≤ 2 s⁻¹.

B17: SEQ ID NO 53 (receptor)
chain: B1 chain with Q20M, G21D, S22Q, M180P, S181I, A183T, S188T, L189R, P190G
notes: as for B1
Regarding B17, the Kd was ≤ 1000 nM and the koff was ≤ 2 s⁻¹.

Broadly, the Kd is the free concentration of one partner at which half of the binding sites on the other are occupied at equilibrium, for simple one-to-one binding. Broadly, the koff is a measure of how fast the partners let go of each other. Low values mean slow dissociation, high ones fast dissociation.
